Data on 1 molecule can be found in paper PMC5484684, “Intracellular targeting of annexin A2 inhibits tumor cell adhesion, migration, and in vivo grafting” (Scientific Reports, 2017).

Assay [1] deals with T1, GST-fused recombinant annexin A2 (human, UniProt P07355 1-339).
T1 construct: May be the same protein as the annexin A2 bought from Amprox
Put plainly: phage binding assay; recombinant proteins in 96-well plates; iPhage input 10^9 TU/well; bound phage particles quantified by bacterial infection; TU normalised on an insertless iPhage. Particulars: both partners purified.

Assay [2] deals with T2, human recombinant annexin A2 (human, UniProt P07355 1-339).
T2 construct: annexin A2, human, recombinant; also called ANXA2; source: bought: Amprox
T2 sequence (P07355 whole entry): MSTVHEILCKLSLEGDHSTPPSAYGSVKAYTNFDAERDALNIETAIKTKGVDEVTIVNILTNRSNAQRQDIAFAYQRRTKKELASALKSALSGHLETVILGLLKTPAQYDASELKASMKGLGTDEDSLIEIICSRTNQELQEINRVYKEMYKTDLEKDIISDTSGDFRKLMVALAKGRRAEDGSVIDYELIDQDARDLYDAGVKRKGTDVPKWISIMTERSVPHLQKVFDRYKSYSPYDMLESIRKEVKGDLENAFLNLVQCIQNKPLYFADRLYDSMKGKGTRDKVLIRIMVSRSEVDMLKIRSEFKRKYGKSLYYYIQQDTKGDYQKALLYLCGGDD
Described as above. Particulars: both partners purified.

Ends that are not written are not given here.

T1 sequence (P07355 whole entry, the tested form may be a part): as the sequence (P07355 whole entry) above

B1: LGRFYAASG-displaying iPhage (peptide)
peptide: LGRFYAASG
modifications: also: phage-displayed
notes: peptide selected from the X4YX4 iPhage random peptide library in KS1767 cells; the alanine variants were cloned into the fUSE5 vector; source: recovered and amplified by E. coli infection, and purified
B1: the binding result in assay [1] and in assay [2] was “binds” each time.
